Laboratory results taken from the nanobody polyreactivity screen of Harvey et al. (2022).

Experiment: yeast display, Sf9 membrane polyspecificity reagent, FACS + sequencing; frameworks hold sequencing errors
Procedure, shortened: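 A synthetic nanobody library was expressed on Saccharomyces cerevisiae BJ5465 by galactose induction for 36–48 hours. The library was stained for 1 hour at 4 °C with 10% biotinylated, detergent-solubilized Sf9 membrane reagent and enriched with streptavidin microbeads before FACS. Low and high (top ~1%) gates were set on anti-HA fluorescence for expression and streptavidin fluorescence for reagent binding, and each polyreactivity label reflects the gate of origin.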

In the case of “QVQLVESGAGLVHAGGSLRLSCASSGSIFNVYAMGWYRQAPGKERELVAAIRSSGGSTYYADSVKGRFTISRDKAKNTVNLQMNSLKPEDTAVYYCAAVTRAIRTWRMYYWGQGTQVTVSS”, the “polyreactivity (PSR sort gate)” value was “high polyreactivity”.

With “QVQLVESGGGLVQAGGSLRLSWAASGLIFSSNAMGWYRQAPGKERDLVAAITRSGGSTYYADSVKGRFTISRDNAKNTVYLQMNSLKPEDTAVYYCAARYSQRGITFYYWGQGTQVTVSS” the “polyreactivity (PSR sort gate)” value was “high polyreactivity”.

With “QVQLVESGGGLVQAGGSLRLSCAASGRIFRYYAMGWYRQSPGKEREFVAAINWSGGSTYYADSVKGRITISRDNAKNTVYLQMNSLKREDTAVYYCAALITQSYDYWGQGSQVTVSS” the “polyreactivity (PSR sort gate)” value was “high polyreactivity”.

For “QVQLLESGGGLVQAGGSRRLSCAASGRTFIFNAMGWYRQAPGKETELVAAISSGGGTNYADSEKGRFTISRDNAKNTVYLQMNSLKPEDTAVYYCARGSYKYRHSYDYWGQGTEVTVSS”, the “polyreactivity (PSR sort gate)” value was “low polyreactivity”.

For “QVQLVESGGGLVQAGGSLRLSCAASGSTFSYNAMGWYRQAPGKERELVATITTGGRTSYADSVKGRFTISRDNAKNTVYLQMNSLKPEDTAVYYCAAVGRFSSRPRVVYYGYDYWGQGTQVTVSS”, the “polyreactivity (PSR sort gate)” value was “low polyreactivity”.

With “QVQLVESGGGLVQAGGSLRLSCAASGFIFYSNAMGSYRQAPGKERELVASITGDGGTTYYADSVKGRFTISRDNAKTTGYLEMNSLKPEDTAVYYCAKDYIYRGYYTDFRYEDYDYWGQGTQVTVSS” the “polyreactivity (PSR sort gate)” value was “low polyreactivity”.

In the case of “QVQLVESGGGLVQAGGSLRLSCAASGSTLYWYAMGWYRQAPGKERELVAVITSSGVSTYYADSVKGRFTISRDNAKNTVYLQMNSLKPEDTAVYYCNAKWYGWQRGTVKYDYWGQGTQVTVSS”, the “polyreactivity (PSR sort gate)” value was “low polyreactivity”.

In the case of “QVQLVESGGGIVQAVGSLRLSCAASGFTLERYAMVWYRPAPGKERELVAAITQSGVSTYYADSVKGRFTISRDNAKNTVYLQMNSLKPEDTAVYYCNALRIYHHYEYDYWGQGTQVTVSS”, the “polyreactivity (PSR sort gate)” value was “high polyreactivity”.

For “QVQLVESGGGLVQAGGSLRLSCAASGRTFASNAMGWSRQAPGKERELVAAISVTGGRTYYADSVKGRFTISRDNAKNTVYLLMNSLKPEDTAVYYCAKVTKLDPYSYDYWGQGTQVTVSS”, the “polyreactivity (PSR sort gate)” value was “low polyreactivity”.

For “QVQLVESGGGLVQAGGSLRLSCAASGNTFVYNDMGWYRQAPGKERELVADIRYSGSTYYADSVKGRFTISRDNAMNSVYLQMNSLKPEDTAVYYCAKAYYVLSWMGYWGQGTQVTVSS”, the “polyreactivity (PSR sort gate)” value was “low polyreactivity”.

For “QVLLVDSGGGLVQAGGSLSLICAASGFTFYYNAMGWYRQAPGKERELVAGISGRGGTTYYADSVNGRFTISRDNAKNTVYLQMNSLKPEDTAVYYCAARKVRARSKFEYWGQGTQVTVSS”, the “polyreactivity (PSR sort gate)” value was “high polyreactivity”.

For “QVQLVESGGGLVQAGGSLRISCAASGFIFDPYAMGWYRQAPGKERELVASINTRGDRTSYADSVKGRFTISRDNAKNTVYLQMNSLKPEDTAVYYCNADAVDQVGPDDDYWGQGTQVTVSS”, the “polyreactivity (PSR sort gate)” value was “low polyreactivity”.

In the case of “QVQLVESGGCLVQAGGSLRLRGAASGRIFGYYAMGWYRQAPGKEWELVAAISRGGSTNYADSVKGRFTISRDNAKNTVYLQMNSLKPEDTAVYYCAAVQRTHPRYYYWGQGTQVTVSS”, the “polyreactivity (PSR sort gate)” value was “high polyreactivity”.

With “QVQLVESGGGLVEAGGSLRLSCAASGAIFQYAMGWYRQAPGKERELVAGITYRGSTYYADSVKGRFTISRDNAKNTVYLQMNSMKPEDTAVYDCAALQRGFGYRPRRWSYDYWGQGTQVTVSS” the “polyreactivity (PSR sort gate)” value was “high polyreactivity”.

In the case of “QVQLVESGGGLVQAGGSLRLSCAASGRIFRYYAMGWYRQAPGKERELVAVISSSGGSTNYADSVKGRFTISRDNAKNTVYLQMNSLKPEDTAVYYCNAYGAYGGTGDYWGQGTQVTVSS”, the “polyreactivity (PSR sort gate)” value was “high polyreactivity”.

In the case of “QVQLVESGGGLVQAGGSLRLSCAASGITLDVNALGWYRQAPGKERELVADITWSDDSTYYADSVKGRFTISRDNAKNTVYLQMNSLKPEDTAVYYCAADVSVSFHPRGYDYWGQGTQVTVSS”, the “polyreactivity (PSR sort gate)” value was “low polyreactivity”.

For “QVQLVESGGGLVQAGGSIRLSCAASGITFRPNAMGWYRQAPGKERELVAAISSGDGTYADSVKGRFTISRDNAKNTVYLQMNSLKPEDTAVYYCNATGQSYVTSEYDYWGQGTQVTVSS”, the “polyreactivity (PSR sort gate)” value was “low polyreactivity”.

With “QVQLVESGGGLVQAGGRLRLSCAASGRIFPRYVMGWYRQAHGKERELVAAITYRGGSTSYADSVKGRFTISRDNAKNTVYLQMNSLKPEDTAVYYCNAYRRAGRTVGTTRRYYYLGQGTQVTVSS” the “polyreactivity (PSR sort gate)” value was “high polyreactivity”.

In the case of “QVQLVESGGGLVQAGGSLRLSCAASGRIFTRYAMGWYRQAPGKERELVAVITRSGGSTYYADSVKGRFTISRDNAKNTVYLQMTSLKPEDTAVYYCAAKYYGEMYYWGQGTQVTVSS”, the “polyreactivity (PSR sort gate)” value was “low polyreactivity”.

For “QVQLVESGGGLVQAGGSLRLSCAASGRTFYRNAMGWYRQAPGKERELVAAITRGGRTYYADSVKGRFTISRDNAKNTVYLQMNSLKPEDTAVYYCNAVSYSSTLASKIPDDYWGQGTQVTVSS”, the “polyreactivity (PSR sort gate)” value was “high polyreactivity”.

In the case of “QVQLVESGGGLVQAGGSLRLSCAASGSILWSYAMGWYRQAPGKERELVAAITSGGSTYYADSVKGRFTISRDNAKNTVYLQMNSLKPEDTAVYYCAADRWRDFWFNEEYWGQGTQVTVSS”, the “polyreactivity (PSR sort gate)” value was “high polyreactivity”.

In the case of “QVQLVESGGGLVQAGGSLRLSCAASGFIFYRYAMGWYRQAPGKERELVASITRSGGSTYYADSVKGRFTISRDNAKNTVYLQMNCLKPEDTAVYYCAADRYLGTYRYRYDYWGQGTQVTVSS”, the “polyreactivity (PSR sort gate)” value was “high polyreactivity”.

With “QVQLVESVGGLVQAGGSLRISCAASGRIFSGNAMGWYRQAPGKERELVASISRSGGRTRYADSVKGRFTISRDNAKNTVYLQMNSLKPEDTAVYYFTALSTQSYYFTYAGYDYWGQGTQVTVSS” the “polyreactivity (PSR sort gate)” value was “high polyreactivity”.

For “QVQLVESGGGIVQAGGSLRLSCAASGPNFTDNAMGWYRQAPGKERELVAAITGPGGSTYYAHSVKGRFTISRDNAKTTVYLQMNSLKREDTAVFYCAADYYYPYYWGQGTQVTVSS”, the “polyreactivity (PSR sort gate)” value was “low polyreactivity”.

With “QVQLVESGGGLVQAGGSLRLSCAASGNTLWRNAMGWYRQAPGKERELVATISSVGTYYADSVKGRFTISRDNAKNSVYFQMNSLKPEDTAVYYCAARIWAFYSRRYFWGQGTQVTVSS” the “polyreactivity (PSR sort gate)” value was “high polyreactivity”.

With “QVQLVESGGGIVQAGGSLRLSCAASGSTFEHNAMGWYRQAPGKEREFVAAITGSGGSTYYADSVKGRFTISRDNAKNTVYLQMTSLKPEDTAVYYCAADIQDGWYWWDIYDYWGQGTQVTVSS” the “polyreactivity (PSR sort gate)” value was “low polyreactivity”.

For “QVQLVESGGGLVQAGGSLRLSCAASGRTFRNNTMGCYRQAPGKERELVATITGSGGSTYYADSVKGRFTISRDNSKNTVYLQMNSLKPEDTAVYYCAAVGDQNEYVYWGQGTQVTVSS”, the “polyreactivity (PSR sort gate)” value was “low polyreactivity”.

For “QVQLVESGGGLVQAGGSLRLSCAASGRTFGRNAMGWYRQAPGKERELVAAISLRGGRTYYADSVKGRFTISRDNAKNTVYLQMNSLKPEDTAVYYCAAVQPVGLYPRTKYYYWGQGTQVTVSS”, the “polyreactivity (PSR sort gate)” value was “high polyreactivity”.

With “QDQHVESGGGLVQAGGSLRLSCAASGSIFVTNAMGWCRQARGKERELVAAISVSGGSTYYADSVKGRFTISRDNAKHTVYLQMTSLKPEDTAVYYCNTVRSPPGHDSWGQGTQVTVSS” the “polyreactivity (PSR sort gate)” value was “low polyreactivity”.

With “QVQLVESGGGLVQAGGSLRLSCAASGLIFNRYVMGWYRQARGKERELVAAITCSGDSTYYADSVKGRFTISRDNAKNTVYLQMNSLKPVDTAVYYCAAWDYRYTDREGDYWGPGTQVTVSS” the “polyreactivity (PSR sort gate)” value was “high polyreactivity”.

For “QVQLVESGGGLVQAGGSLRLSCAASGRTFRSDNAMGWYRQAPGKERELVAAISQGGGTYYADSVKGRFTISRDNAKNTVYLQMNSLKPEDTAVYYCARDAYYADPSLWYYTYDYWGQGTQVNVSS”, the “polyreactivity (PSR sort gate)” value was “low polyreactivity”.

With “QVQLVESGGGLVQAGGSLRLSCAASGITFVFYAMGWYRQAPGKERELVAAISWSGGITYYADSVKGRFTISRDNAKNTVYLQMNSLKPEDTAVYYCAARISWEKYQAGYDYWGQGTQVTVSS” the “polyreactivity (PSR sort gate)” value was “low polyreactivity”.

For “QVQLEESGGGLVQAGGSLRLSCAASGSTFVPYAMGWYRQAPGKERELVASISWRGGSTSYADSVKGRFTISRDNAKNTVYLQMNSLKPEDTAVYYCAADLGLDYDDAQTRVVVTSEDYWGQGTQVTVSS”, the “polyreactivity (PSR sort gate)” value was “high polyreactivity”.

With “QVQLVDSGGGLVQAGGSLRLSCAASGRTFNLYAMGWYRQAPGKERELVATIDWTGGSTYYADSVKGRFTISRDNAKNTVYLQMNSLKPEDTAVYYCNADRFADYDYWGQGTQVTVSS” the “polyreactivity (PSR sort gate)” value was “low polyreactivity”.

For “QVQLVESGGGLVQAGGSLRLSCAASGITFPANARGWYRPAPGKERELVAAISSSGDSTYYADSVKGRFTISRDNAKNTVYFQMNILKPEDTAVYYCAAKDYVWGQGTQVTVSS”, the “polyreactivity (PSR sort gate)” value was “low polyreactivity”.

In the case of “QVQLEESRGGLVQAGGSLRLSYPASGRTYVTYAMGWYRQAPGKERELVAAITSGGSTNYADSVKGRFTISRDNAKNTVYLQMNSLKPEDTAVYYCAKAYLWYKGIFDYWGQGTQVTVSS”, the “polyreactivity (PSR sort gate)” value was “low polyreactivity”.

For “QVQLVESGGGLVQAGGSLRLSCAASGSTFGLYVMGWYRQAPGKERELVATITRSGGSTYADSVKGRFTISRDNAKNTVYLQMNSLKPEDTAVYYCNADYPKPVYYSYWHQEFEYWGQGTQVTVSS”, the “polyreactivity (PSR sort gate)” value was “low polyreactivity”.

With “QVQLVESGGGLVQAGGSLRLSCAATGFIFTDNVMGWYRQAPGKERELVAAISRRGGSTYYADSVKGRFTISRDNAKNTVYLQMNSLKPEDTAVYYCNVARQSYLLDYWGQGSQVTVSS” the “polyreactivity (PSR sort gate)” value was “high polyreactivity”.

For “QVQLVESGGGLVQAGGSLRLSCAASGFIFGVYAMGWYRQAPGNERELVAAISGSGGTTYYADSVKGRFTISRDNAKNTVYLQMNSQKPEDTAVYYCNAAYRVRYIVNYDYWGQGTQVTVSS”, the “polyreactivity (PSR sort gate)” value was “low polyreactivity”.

With “QVQLVESGGGLVQAGGSLRLSCAASGSTLYYNAMGWYRQAPGKERELVAAITSGGSTSYADSVKGRFTISRDNAKNTVSFQMYSLKPEDTAVYYCAAVFYRRFDNWGQGTQVTVSS” the “polyreactivity (PSR sort gate)” value was “low polyreactivity”.

In the case of “QVQLVESGGGLVQAGGSLRLSCAASGRLFVYNAMGWYRQAPGKEREFVATITSSGGRTYYADSVKGRFTISRDNAKNTVYLQMNSLKPEDSAVYYCAARPQNNGRNPVYRYNYWGQGTQVTVSS”, the “polyreactivity (PSR sort gate)” value was “high polyreactivity”.

For “QVQLVESGGGLVQAGGSLRLSCAASGFTFRHYAMGWYRQAPGKARQLVAAITKSGDSTYYADSVKWRFTISRDIAKKTVYLQMNSLNPEDTEVYYCATPYTLSRADNYWGQGTQVTVSS”, the “polyreactivity (PSR sort gate)” value was “low polyreactivity”.

In the case of “QVQLVESGGGLVQAGGSLRLSCADSGNTIYGYAMGWNRQAPGKERELVASITLSGDSTYYADSVKGRFTISRDNAKNTVFLQMNRLKPEDTSVYYCSGVYTYPLGYYHYTYDYWGQGSQVTVSS”, the “polyreactivity (PSR sort gate)” value was “low polyreactivity”.
